Experimental data taken from patent US20060257887A1.

Target: GFP 1-10 OPT (Aequorea victoria) [GFP: P42212]
Assay: cell-based or functional assay

## HPS-GFP 11 M2 (3-hexulose 6-phosphate synthase fused to GFP S11 M2; L221H, F223S, T225N)
  complementation rate (fold (decrease)): 5
